Measurements published in patent publication US20250042970A1.

What was measured:
[1] = molecular target: human APRIL (Examples 21-23) (human) (UniProt O75888); test: assay not given (Example 21)
[2] = molecular target: human BAFF (Examples 21-23) (human) (UniProt Q9Y275); test: assay not given (Example 21)

Chain of human APRIL (Examples 21-23) (human) (O75888 105-250 limits assumed): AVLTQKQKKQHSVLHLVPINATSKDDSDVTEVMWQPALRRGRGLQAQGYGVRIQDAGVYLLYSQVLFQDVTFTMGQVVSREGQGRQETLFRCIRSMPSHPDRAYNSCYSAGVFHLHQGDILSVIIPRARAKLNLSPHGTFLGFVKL

Kd [1]	Kd [2]	Binder
400 pM	–	BION-1301 (antibody, INN chains, looked up, V domains shown) VH: QVQLVQSGAEVKKPGASVKVSCKASGYTFTDYTIHWVRQATGQGLEWMGWIYPLRGSINYAQKFQGRVTMTADKSISTVYMELSSLRSEDTAVYFCARHGAYYSNAFDYWGQGTLVTVSS VL: EIVMTQSPATLSVSPGERATLSCRASESVDNDGIRFLHWYQQKPGQAPRLLIYRASTRATGIPARFSGSGSRTEFTLTISSLQSEDFAVYYCQQSNKDPYTFGGGTKVEIK
–	2.3 pM	Benlysta (antibody, INN chains, looked up, V domains shown) VH: QVQLQQSGAEVKKPGSSVRVSCKASGGTFNNNAINWVRQAPGQGLEWMGGIIPMFGTAKYSQNFQGRVAITADESTGTASMELSSLRSEDTAVYYCARSRDLLLFPHHALSPWGRGTMVTVSS VL: SSELTQDPAVSVALGQTVRVTCQGDSLRSYYASWYQQKPGQAPVLVIYGKNNRPSGIPDRFSGSSSGNTASLTITGAQAEDEADYYCSSRDSSGNHWVFGGGTELTVLG
